These are literature values, as cited in paper PMC5808296.

Read-outs that look alike come from different tables or passages of the source.

Broadly, the Kd is the equilibrium constant for the complex coming apart.

Series [1] has as its target Aβ42 Aβ1-42 (Mus musculus) (UniProt P12023).
Series [2] has the same target. The source holds these as a separate data set.

With C-FRHMTEQ-C peptide, in series [1], the Kd was 0.545 nM.
As to C-IPLPFYN-C peptide, the Kd in series [2] was 0.22 nM.
